From the supplement of paper PMC9112550, “Optimization of the antimicrobial peptide Bac7 by deep mutational scanning” (BMC Biology, 2022)

Tested on: Escherichia coli TOP10
Assay: shrunken log2 fold change of peptide-encoding DNA abundance (4.5 h post-induction vs induction); higher = less antimicrobial activity (less host growth inhibition)
Conditions: time post-induction: 4.5 h; library: site-saturation at positions 5, 18, 19, 20
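Note: peptides expressed intracellularly from a pBAD plasmid library in pooled LB shake-flask culture, induced with 0.3% L-arabinose, DNA abundance read by NGS, three biological replicates, DESeq2 with apeglm shrinkage.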

Sequence | shrunken log2 fold change
RRIRKRPPRLPRPRPRPDMTPRP | 1.34
RRIRKRPPRLPRPRPRPQDHPRP | 0.103
RRIRSRPPRLPRPRPRPEKPPRP | 0.014
RRIRPRPPRLPRPRPRPYQRPRP | 0.0369
RRIRYRPPRLPRPRPRPYWMPRP | -0.686
RRIRMRPPRLPRPRPRPNFTPRP | -0.099
RRIRRRPPRLPRPRPRPVSFPRP | 0.178
RRIRCRPPRLPRPRPRPHNNPRP | -0.991
RRIRRRPPRLPRPRPRPADNPRP | 0.111
RRIRDRPPRLPRPRPRPEMQPRP | -0.0247
RRIRQRPPRLPRPRPRPGGSPRP | -0.141
RRIRFRPPRLPRPRPRPQNCPRP | -0.195
RRIRCRPPRLPRPRPRPADSPRP | -0.0251
RRIRNRPPRLPRPRPRPHSRPRP | -0.0742
RRIRMRPPRLPRPRPRPVALPRP | 0.711
RRIRTRPPRLPRPRPRPDKEPRP | -0.0196
RRIRKRPPRLPRPRPRPGKWPRP | 0.184
RRIRERPPRLPRPRPRPAELPRP | -0.187
RRIRNRPPRLPRPRPRPECDPRP | 0.203
RRIRLRPPRLPRPRPRPILRPRP | -0.156
RRIRVRPPRLPRPRPRPCIGPRP | -0.8
RRIRSRPPRLPRPRPRPRAKPRP | 0.244
RRIRFRPPRLPRPRPRPQNYPRP | -0.502

Sequence | shrunken log2 fold change
RRIRGRPPRLPRPRPRPFSFPRP | 0.268
RRIRNRPPRLPRPRPRPAHMPRP | -0.167
RRIRARPPRLPRPRPRPWQAPRP | -0.0548
RRIRERPPRLPRPRPRPFCMPRP | -0.126
RRIRHRPPRLPRPRPRPCDMPRP | -0.302
RRIRERPPRLPRPRPRPSLCPRP | -0.0545
RRIRGRPPRLPRPRPRPLQWPRP | 0.534
RRIRLRPPRLPRPRPRPRVGPRP | 0.295
RRIRLRPPRLPRPRPRPEADPRP | 0.357
RRIRNRPPRLPRPRPRPPVRPRP | 0.489
RRIRPRPPRLPRPRPRPKQDPRP | 0.0659
RRIRSRPPRLPRPRPRPCAKPRP | 0.0351
RRIRRRPPRLPRPRPRPFTNPRP | 0.103
RRIRARPPRLPRPRPRPFNAPRP | -0.307
RRIRQRPPRLPRPRPRPTFCPRP | -0.0744
RRIRVRPPRLPRPRPRPYTLPRP | -0.666
RRIRARPPRLPRPRPRPYHVPRP | -0.963
RRIRRRPPRLPRPRPRPEEYPRP | -0.173
RRIRMRPPRLPRPRPRPWFPPRP | -0.0494
RRIRDRPPRLPRPRPRPTMEPRP | 0.335
RRIRARPPRLPRPRPRPPASPRP | 0.77
RRIRQRPPRLPRPRPRPWHHPRP | -0.00612
RRIRPRPPRLPRPRPRPCLAPRP | -0.109

Sequence | shrunken log2 fold change
RRIRQRPPRLPRPRPRPPKRPRP | 0.487
RRIRNRPPRLPRPRPRPEGHPRP | 0.00677
RRIRMRPPRLPRPRPRPHRWPRP | 0.478
RRIRLRPPRLPRPRPRPHVPPRP | 0.0978
RRIRFRPPRLPRPRPRPMGMPRP | -0.0492
RRIRLRPPRLPRPRPRPWWDPRP | -0.305
RRIRQRPPRLPRPRPRPCCAPRP | 0.0773
RRIRNRPPRLPRPRPRPPENPRP | 0.181
RRIRCRPPRLPRPRPRPKIYPRP | -0.643
RRIRTRPPRLPRPRPRPTQCPRP | 0.227
RRIRYRPPRLPRPRPRPFMVPRP | -1.05
RRIRHRPPRLPRPRPRPFTSPRP | -0.197
RRIRGRPPRLPRPRPRPSSYPRP | -0.128
RRIRARPPRLPRPRPRPMWQPRP | -0.00908
RRIRARPPRLPRPRPRPCCQPRP | 0.102
RRIRERPPRLPRPRPRPQCCPRP | -0.106
RRIRTRPPRLPRPRPRPCTPPRP | -0.214
RRIRRRPPRLPRPRPRPVSDPRP | 0.444
RRIRDRPPRLPRPRPRPWMCPRP | -0.0722
RRIRIRPPRLPRPRPRPDEHPRP | -0.272
RRIRSRPPRLPRPRPRPKEQPRP | -0.0517
RRIRARPPRLPRPRPRPRYTPRP | -0.0676
RRIRQRPPRLPRPRPRPTTPPRP | 0.402

Sequence | shrunken log2 fold change
RRIRNRPPRLPRPRPRPLWKPRP | -0.422
RRIRDRPPRLPRPRPRPLGDPRP | 0.0385
RRIRWRPPRLPRPRPRPFFLPRP | -0.0114
RRIRKRPPRLPRPRPRPLKYPRP | 0.072
RRIRTRPPRLPRPRPRPQCFPRP | 0.0187
RRIRNRPPRLPRPRPRPDMLPRP | -0.116
RRIRARPPRLPRPRPRPSDHPRP | -0.134
RRIRDRPPRLPRPRPRPKYMPRP | -0.326
RRIRPRPPRLPRPRPRPCEQPRP | 0.102
RRIRWRPPRLPRPRPRPENEPRP | 0.194
RRIRIRPPRLPRPRPRPRIWPRP | 0.063
RRIRDRPPRLPRPRPRPGYDPRP | 0.0286
RRIRHRPPRLPRPRPRPGNIPRP | -0.227
RRIRLRPPRLPRPRPRPMHTPRP | 0.25
RRIRWRPPRLPRPRPRPPQHPRP | 0.275
RRIRFRPPRLPRPRPRPEIVPRP | -0.0888
RRIRLRPPRLPRPRPRPHVKPRP | -0.333
RRIRCRPPRLPRPRPRPWIHPRP | -0.277
RRIRHRPPRLPRPRPRPIDLPRP | 0.036
RRIRVRPPRLPRPRPRPRCTPRP | 0.0149
RRIRMRPPRLPRPRPRPACTPRP | 0.623
RRIRHRPPRLPRPRPRPYPGPRP | -0.216
